# Assay results published in patent US20210107983A1 (Boehringer Ingelheim, published 2021).
# Substitutions are numbered along the chain they refer to.
# T1: Cyno B7H6-His (cynomolgus monkey)
# T1 construct: also called CyB7H6; cyB7-H6
# T1 chain: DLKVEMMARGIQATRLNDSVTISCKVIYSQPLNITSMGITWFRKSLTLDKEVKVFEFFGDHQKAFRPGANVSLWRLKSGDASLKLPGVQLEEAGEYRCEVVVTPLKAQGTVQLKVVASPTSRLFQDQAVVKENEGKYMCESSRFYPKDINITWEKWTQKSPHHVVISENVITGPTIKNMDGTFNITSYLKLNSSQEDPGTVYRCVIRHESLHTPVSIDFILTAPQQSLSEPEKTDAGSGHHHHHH
# B1: B7H6#17/CD3#1 (bispecific antibody, human IgG1, kappa, lambda, L234A L235A)
# chain 1: DIQMTQSPSSLSASVGDRVTITCKASQNVGKYVAWYQQKPGKAPKSLIYSASNRYDGVPSRFSGSGSGTDFTLTISSLQPEDFTTYYCQQYISYPLTFGAGTKLEIKRTVAAPSVFIFPPSDEQLKSGTASVVCLLNNFYPREAKVQWKVDNALQSGNSQESVTEQDSKDSTYSLSSTLTLSKADYEKHKVYACEVTHQGLSSPVTKSFNRGECGGGGSEGKSSGSGSESKSTEGKSSGSGSESKSTGGGGSQVQLVQSGAEVKKPGASVKVSCKASGYTFTSYWMNWMRQAPGQGLEWMGGIYLSGDSTDYNEKFKGRVTMTVDTSTSTVYMELSSLRSEDTAVYYCTRRGDYFGDFWGQGTLVTVSSASTKGPSVFPLAPSSKSTSGGTAALGCLVKDYFPEPVTVSWNSGALTSGVHTFPAVLQSSGLYSLSSVVTVPSSSLGTQTYICNVNHKPSNTKVDKRVEPKSCDKTHTCPPCPAPEAAGGPSVFLFPPKPKDTLMISRTPEVTCVVVDVSHEDPEVKFNWYVDGVEVHNAKTKPREEQYNSTYRVVSVLTVLHQDWLNGKEYKCKVSNKALPAPIEKTISKAKGQPREPQVYTLPPSREEMTKNQVSLWCLVKGFYPSDIAVEWESNGQPENNYKTTPPVLDSDGSFFLYSKLTVDKSRWQQGNVFSCSVMHEALHNHYTQKSLSLSPG
# chain 2: EAVVTQEPSLTVSPGGTVTLTCRSSTGAVTTSNYANWVQEKPGQLPRGLIGGTNKRAPWVPARFSGSLLGGKAALTLSGAQPEDEAEYFCALWYSNLWVFGGGTKLTVLGQPKAAPSVTLFPPSSEELQANKATLVCLISDFYPGAVKVAWKADGSPVNTGVETTTPSKQSNNKYAASSYLSLTPEQWKSHRSYSCQVTHEGSTVEKTVAPAECSGGGGSEGKSSGSGSESKSTEGKSSGSGSESKSTGGGGSEVQLVESGGGLVQPGGSLKLSCAASGFTFNTYAMNWVRQAPGKGLEWVARIRSKYNNYATYYADSVKDRFTISRDDSKNTAYLQMNNLKTEDTAVYYCVRHGNFGNSYVSWFAYWGQGTLVTVSAASTKGPSVFPLAPSSKSTSGGTAALGCLVKDYFPEPVTVSWNSGALTSGVHTFPAVLQSSGLYSLSSVVTVPSSSLGTQTYICNVNHKPSNTKVDKRVEPKSCDKTHTCPPCPAPEAAGGPSVFLFPPKPKDTLMISRTPEVTCVVVDVSHEDPEVKFNWYVDGVEVHNAKTKPREEQYNSTYRVVSVLTVLHQDWLNGKEYKCKVSNKALPAPIEKTISKAKGQPREPQVYTLPPSREEMTKNQVSLSCAVKGFYPSDIAVEWESNGQPENNYKTTPPVLDSDGSFFLVSKLTVDKSRWQQGNVFSCSVMHEALHNRFTQKSLSLSPG
# notes: scFab-Fc heterodimer, one B7H6 chain and one CD3 chain
# B2: B7H6#14/CD3#1 (bispecific antibody, human IgG1, kappa, lambda, L234A L235A)
# chain 1: B1 chain 1 with T84A, Y87F, S283N, R290K, M300I, S306N, R319K
# chain 2: B1 chain 2
# notes: as for B1
# B3: B7H6#13/CD3#1 (bispecific antibody, human IgG1, kappa, lambda, L234A L235A)
# chain 1: B1 chain 1 with R290K, S306N
# chain 2: B1 chain 2
# notes: as for B1
# B4: B7H6#15/CD3#1 (bispecific antibody, human IgG1, kappa, lambda, L234A L235A)
# chain 1: B1 chain 1 with S283N
# chain 2: B1 chain 2
# notes: as for B1
# B5: B7H6#12/CD3#1 (bispecific antibody, human IgG1, kappa, lambda, L234A L235A)
# chain 1: B1 chain 1 with S283N, M289V, R290K, S306N, R319K, V320A
# chain 2: B1 chain 2
# notes: as for B1
# Target: T1, Cyno B7H6-His
# Experiment: SPR, binder captured on Protein A/G, B7H6 analyte
# Method: (§1) To determine the affinity of human and cyno B7H6 and human B7H1 to B7H6/CD3 binding proteins, the experiment was performed on a Biacore™ 8K instrument (GE Healthcare Life Sciences). Briefly, the B7H6/CD3 binding protein was captured via Protein A/G. The running buffer for this experiment and all serial dilutions were prepared in HBS-EP+. The CM5 sensor chip was activated with an equal mixture of EDC/NHS across both flow cells for 420 s at a flow rate of 10 μL/min and immobilized with recombinant Protein A/G (50 μg/ml in 10 mM NaOAc, pH 4.5) across all flow cells for 420 s at a flow rate of 10 μL/min resulting in about 2500 RU of Protein A/G on the surface. The sensor chip was deactivated with 1M ethanolamine-HCl across all flow cells for 420 s at a flow rate of 10 μL/min.
# (§2) About 700 RU of the B7H6/CD3 binding protein was captured on flow cell 2 of the Protein A/G surface for 60 s at a flow rate of 10 μL/min. The analytes HuB7H6, CyB7H6 and HuB7H1 were injected across both flow cells over captured B7H6/CD3 binding protein for 300 s at a flow rate of 30 μL/min with a dissociation of 1200 s. The concentrations of HuB7H6 and CyB7H6 were 0 nM, 6.25 nM, 12.5 nM, 25 nM, 50 nM and 100 nM. The concentrations of HuB7H1 were 0 nM and 1 μM. The surface was regenerated by injecting 10 mM glycine-HCl, pH 1.5 for 20 s at a flow rate of 30 μL/min across both flow cells.
# (§3) The reference flow cell 1 (interactions with sensor surface) and blank (HBS-EP+ or 0 nM analyte) were subtracted from the raw data.
row,Binder,Kd
1,B1,8.4 nM
2,B2,0.6 nM
3,B3,4.6 nM
4,B4,2.2 nM
5,B5,2.3 nM

# Target: T2, chicken egg white lysozyme (chicken, UniProt P00698 19-147)
# T2 construct: unrelated positively charged protein, amine-coupled to the chip; also called Lysozyme (positive)
# T2 sequence (P00698 19-147): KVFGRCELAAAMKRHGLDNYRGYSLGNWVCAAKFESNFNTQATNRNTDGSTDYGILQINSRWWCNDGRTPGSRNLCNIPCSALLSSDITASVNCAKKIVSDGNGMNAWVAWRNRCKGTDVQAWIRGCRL
# Experiment: SPR, 1 µM binder over immobilized lysozyme
# Method: (§4) The experiment was performed on a Biacore® T200 SPR system (GE Healthcare Life Sciences). The dilution, surface preparation, and binding experiments were performed at 25° C. in 1×HBS-EP buffer prepared from 10×HBS-EP. The flow rate for both the immobilization protocol and binding experiment was at 5 μL/min.
# (§5) To prepare the surface for the non-specific binding experiment, chicken egg white lysozyme and trypsin inhibitor from Glycine max soybean were coupled manually to a Biacore® series S CM5 sensor chip (GE Healthcare sciences) with the surface density of 3000-5000 RU using the amine coupling kit according to the manufacture instructions. Samples were prepared at 1 μM in 1×HBS-EP buffer. The samples were injected over activated surfaces with a 10 min association and 15 min dissociation. The data was collected using Biacore® T200 Control Software version 2.0.1 and analyzed using Biacore® T200 Evaluation Software version 3.0 (GE Healthcare Life Sciences).
row,Binder,Non-specific binding (RU)
1,B1,15.3 RU
2,B2,8.1 RU
3,B3,7.2 RU
4,B4,7.2 RU
5,B5,9.2 RU

# Target: T1, Cyno B7H6-His
# Experiment: ratio of SPR KDs cyno/human
# Method: as §2, §3
# (§6) The B7H6/CD3 binding protein analyte was injected horizontally over the immobilized surface for 300 s at a flow rate of 30 μL/min with a dissociation of 600 s. The concentrations of the B7H6/CD3 binding protein used were 0 nM, 1.2 nM, 3.7 nM, 11.1 nM, 33.3 nM and 100 nM.
row,Binder,cy/hu B7-H6
1,B1,1
2,B2,5.9
3,B3,1.5
4,B4,2.8
5,B5,2.1

# Target: T3, Human B7H1 (human, UniProt Q9NZQ7 20-239)
# T3 construct: also called HuB7H1; huB7-H1
# T3 sequence (Q9NZQ7 other isoform, or with tags, fused parts or gaps limits assumed): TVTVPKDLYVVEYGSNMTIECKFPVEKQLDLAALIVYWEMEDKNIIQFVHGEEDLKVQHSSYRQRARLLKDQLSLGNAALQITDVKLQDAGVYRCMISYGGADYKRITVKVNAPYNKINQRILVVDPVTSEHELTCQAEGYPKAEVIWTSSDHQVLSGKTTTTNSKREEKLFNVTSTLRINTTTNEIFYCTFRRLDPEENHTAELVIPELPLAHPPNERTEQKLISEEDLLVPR
# Experiment: SPR, binder captured on Protein A/G, HuB7H1 analyte
# Method: as §1, §2, §3
row,Binder,binding result
1,B1,no binding (tested: 1 µM)
2,B2,no binding (tested: 1 µM)
3,B3,no binding (tested: 1 µM)
4,B4,no binding (tested: 1 µM)
5,B5,no binding (tested: 1 µM)

# Target: T4, trypsin inhibitor from Glycine max soybean (Glycine max (soybean))
# T4 construct: unrelated negatively charged protein, amine-coupled to the chip
# T4 sequence (P01070 25-205): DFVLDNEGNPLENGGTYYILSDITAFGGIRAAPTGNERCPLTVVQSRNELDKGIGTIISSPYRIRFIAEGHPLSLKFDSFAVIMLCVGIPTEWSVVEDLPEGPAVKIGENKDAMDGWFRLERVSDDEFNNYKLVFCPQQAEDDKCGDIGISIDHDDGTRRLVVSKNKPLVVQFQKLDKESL
# Experiment: SPR, 1 µM binder over immobilized trypsin inhibitor
# Method: as §4, §5
row,Binder,Non-specific binding (RU)
1,B1,88.4 RU
2,B2,32.7 RU
3,B3,30.6 RU
4,B4,32.8 RU
5,B5,35.4 RU

# Target: T5, Human CD3 E+G HuFc-6xHis (human)
# T5 construct: also called HuCD3E+G-hFc; huCD3
# T5 sequence (chain, as listed by the source limits assumed): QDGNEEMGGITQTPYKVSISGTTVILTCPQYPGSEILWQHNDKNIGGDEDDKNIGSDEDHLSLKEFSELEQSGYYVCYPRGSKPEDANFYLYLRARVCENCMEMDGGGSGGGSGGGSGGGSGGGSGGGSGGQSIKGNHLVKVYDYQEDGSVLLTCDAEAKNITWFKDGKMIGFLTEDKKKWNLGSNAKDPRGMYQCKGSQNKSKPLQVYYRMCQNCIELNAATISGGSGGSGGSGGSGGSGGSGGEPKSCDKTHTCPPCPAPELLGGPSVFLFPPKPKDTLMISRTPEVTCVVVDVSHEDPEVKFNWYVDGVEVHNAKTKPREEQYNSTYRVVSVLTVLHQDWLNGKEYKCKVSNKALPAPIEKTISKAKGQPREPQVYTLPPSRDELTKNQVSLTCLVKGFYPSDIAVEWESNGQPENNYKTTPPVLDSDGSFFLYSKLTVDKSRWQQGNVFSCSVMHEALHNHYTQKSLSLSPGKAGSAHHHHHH
# Experiment: SPR, CD3E+G-hFc immobilized, binder analyte
# Method: To determine the affinity of the B7H6/CD3 binding protein to human and cyno CD3E+G-hFc, the experiment was performed on a Bio-Rad ProteOn™ XPR36 instrument. Briefly, HuCD3E+G-hFc and CyCD3E+G were amine-coupled on a ProteOn™ GLM sensor chip (Bio-Rad) and the B7H6/CD3 binding protein was flowed over the immobilized surface. The running buffer for this experiment and all serial dilutions were prepared in HBS-EP+. The GLM sensor chip was normalized according to Bio-Rad's recommendations. The sensor chip was activated with an equal mixture of EDC/s-NHS in the horizontal direction for 300 s at a flow rate of 30 μL/min HuCD3E+G-hFc was immobilized in the vertical direction at 0.4 μg/mL, 0.2 μg/mL and 0.1 μg/mL in 10 mM acetate pH 4.5 to L1, L2 and L3, respectively, for 300 s at a flow rate of 30 μL/min resulting in about 100 RU of HuCD3E+G-hFc on L1, 40 RU of HuCD3E+G-hFc on L2 and 0 RU of HuCD3E+G-hFc on L3. CyCD3E+G-hFc was immobilized in the vertical direction at 0.4 μg/mL, 0.2 μg/mL and 0.1 μg/mL in 10 mM acetate pH 4.5 to L4, L5 and L6, respectively, for 300 s at a flow rate of 30 μL/min resulting in about 385 RU of […], 170 RU of CyCD3E+G-hFc on L5 and 50 RU of CyCD3E+G-hFc on L6. The sensor chip was deactivated with 1M ethanolamine-HCl in the horizontal direction for 300 s at a flow rate of 30 μL/min.
# as §6
# The interspot (interactions with sensor surface) and blank (HBS-EP+ or 0 nM analyte) were subtracted from the raw data.
row,Binder,Kd
1,B1,13.5 nM
2,B2,4.2 nM
3,B3,4.1 nM
4,B4,3.8 nM
5,B5,3.6 nM
